The values that follow come from patent US20240018252A1.

Assay [1] concerns the target human BCMA (B-Cell Maturation Antigen) on myeloma cells (human) (UniProt Q02223). Kind of assay: cell-based or functional assay.
For assay [2], the target named is human CD3 (huCD3ed) (human) (UniProt P07766). Description: Biacore SPR, bispecific hIgG2dA format, 37 C; CD3 antigen not given.
Chain of human CD3 (huCD3ed) (human) (P07766 23-126, chain 1 of 2): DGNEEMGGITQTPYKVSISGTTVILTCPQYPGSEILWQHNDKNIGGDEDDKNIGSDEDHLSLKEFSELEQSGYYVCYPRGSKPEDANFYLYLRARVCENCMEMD
Chain of human CD3 (huCD3ed) (human) (P04234 22-105, chain 2 of 2, further chain): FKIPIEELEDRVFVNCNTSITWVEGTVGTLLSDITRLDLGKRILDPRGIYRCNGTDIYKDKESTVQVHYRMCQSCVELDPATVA

Chain of human BCMA (B-Cell Maturation Antigen) on myeloma cells (human) (Q02223 whole entry): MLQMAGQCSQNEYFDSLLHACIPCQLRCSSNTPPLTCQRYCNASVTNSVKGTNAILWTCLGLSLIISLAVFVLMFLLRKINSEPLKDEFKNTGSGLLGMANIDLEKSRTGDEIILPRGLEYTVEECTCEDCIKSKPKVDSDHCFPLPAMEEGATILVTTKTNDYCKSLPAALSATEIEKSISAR

B1: P5A2/h2B4 anti-BCMA/CD3 bispecific (bispecific antibody, V domains shown)
VH 1: EVQLLESGGGLVQPGGSLRLSCAASGFTFSSYAMNWVRQAPGKGLEWVSAISDSGGSTYYADSVKGRFTISRDNSKNTLYLQMNSLRAEDTAVYYCARYWPMDIWGQGTLVTVSS
VL 1: EIVLTQSPGTLSLSPGERATLSCRASQSVSSSYLAWYQQKPGQAPRLLMYDASIRATGIPDRFSGSGSGTDFTLTISRLEPEDFAVYYCQQYGSWPLTFGQGTKVEIK
VH 2: EVQLVESGGGLVQPGGSLRLSCAASGFTFSDYYMTWVRQAPGKGLEWVAFIRNRARGYTSDHNASVKGRFTISRDNAKNSLYLQMNSLRAEDTAVYYCARDRPSYYVLDYWGQGTTVTVSS
VL 2: DIVMTQSPDSLAVSLGERATINCTSSQSLFNVRSRKNYLAWYQQKPGQPPKLLISWASTRESGVPDRFSGSGSGTDFTLTISSLQAEDVAVYYCKQSYDLFTFGSGTKLEIK
In assay [1], B1 had an EC50 (nM), killing of primary myeloma cells in bone marrow mononuclear cells of patient MM00146 (flow cytometry, day 5) of 0.946 nM; an EC50, T-cell mediated cytotoxicity (LDH release, 20 h) on KMS12BM (BCMA+) cells of 1.51 nM; an EC50, T-cell mediated cytotoxicity (LDH release, 20 h) on KMS12PE (BCMA+++) cells of 0.371 nM; an EC50, T-cell mediated cytotoxicity (LDH release, 20 h) on MOLP8 (MOLP8+) cells of 5.23 nM.

B2: h2B4-yaesTK_Ep (bispecific antibody, part only; not given: anti-EpCam arm, constant regions, V domains shown, not shown: another chain or arm of the molecule; a dimerising Fc or GST; small tags and cut ends)
VH: EVQLVESGGGLVQPGGSLRLSCAASGFTFSDYYMTWVRQAPGKGLEWVAFIRNRARGYTSDYAESVKGRFTISRDNAKNSLYLQMNSLRAEDTAVYYCARDRPSYYVLDYWGQGTTVTVSS
VL: DIVMTQSPDSLAVSLGERATINCKSSQSLFNVRSRKNYLAWYQQKPGQPPKLLISWASTRESGVPDRFSGSGSGTDFTLTISSLQAEDVAVYYCKQSYDLFTFGSGTKLEIK
In assay [2], B2 displayed a dissociation constant Kd of 54.4 nM, a koff of 0.0258 s⁻¹, an on-rate constant (kon) of 474000 M⁻¹ s⁻¹ and a t½ of 27 s.

B3: h2B4-hnpsTK_Ep (bispecific antibody, part only; not given: anti-EpCam arm, constant regions, V domains shown, not shown: another chain or arm of the molecule; a dimerising Fc or GST; small tags and cut ends)
VH: EVQLVESGGGLVQPGGSLRLSCAASGFTFSDYYMTWVRQAPGKGLEWVAFIRNRARGYTSDHNPSVKGRFTISRDNAKNSLYLQMNSLRAEDTAVYYCARDRPSYYVLDYWGQGTTVTVSS
VL: DIVMTQSPDSLAVSLGERATINCKSSQSLFNVRSRKNYLAWYQQKPGQPPKLLISWASTRESGVPDRFSGSGSGTDFTLTISSLQAEDVAVYYCKQSYDLFTFGSGTKLEIK
B3: in assay [2], the dissociation constant Kd came to 31.2 nM, the koff came to 0.0235 s⁻¹, the association rate constant (kon) was found to be 754000 M⁻¹ s⁻¹ and the t½ was 29.4 s.

B4: h2B4-1d_Ep (bispecific antibody, part only; not given: anti-EpCam arm, constant regions, V domains shown, not shown: another chain or arm of the molecule; a dimerising Fc or GST; small tags and cut ends)
VH: EVQLVESGGGLVQPGGSLRLSCAASGFTFSDYYMTWVRQAPGKGLEWVAFIRNRARGYTSDHNASVKGRFTISRDNAKNSLYLQMNSLRAEDTAVYYCARDRPSYYVLDYWGQGTTVTVSS
VL: DIVMTQSPDSLAVSLGERATINCTSSQSLFNVRSRKNYLAWYQQKPGQPPKLLISWASTRESGVPDRFSGSGSGTDFTLTISSLQAEDVAVYYCKQSYDLFTFGSGTKLEIK
Consider B4, for which, in assay [2], the Kd was found to be 40.4 nM, the koff worked out at 0.0237 s⁻¹, the kon turned out to be 586000 M⁻¹ s⁻¹ and the t½ turned out to be 29.4 s.

B5: h2B4-TK_Ep (bispecific antibody, part only; not given: anti-EpCam arm, constant regions, V domains shown, not shown: another chain or arm of the molecule; a dimerising Fc or GST; small tags and cut ends)
VH: EVQLVESGGGLVQPGGSLRLSCAASGFTFSDYYMTWVRQAPGKGLEWVAFIRNRARGYTSDHNASVKGRFTISRDNAKNSLYLQMNSLRAEDTAVYYCARDRPSYYVLDYWGQGTTVTVSS
VL: DIVMTQSPDSLAVSLGERATINCKSSQSLFNVRSRKNYLAWYQQKPGQPPKLLISWASTRESGVPDRFSGSGSGTDFTLTISSLQAEDVAVYYCKQSYDLFTFGSGTKLEIK
In assay [2], B5 yielded a Kd of 31 nM, a koff of 0.0213 s⁻¹, a kon of 687000 M⁻¹ s⁻¹ and a t½ of 32.4 s.

B6: h25A8-B5_Ep (bispecific antibody, part only; not given: anti-EpCam arm, constant regions, V domains shown, not shown: another chain or arm of the molecule; a dimerising Fc or GST; small tags and cut ends)
VH: EVQLVESGGGLVKPGGSLRLSCAASGFTFSTYAMNWVRQAPGKGLEWVGRIRSKINNYATYYAESVKGRFTISRDDSKNTLYLQMNSLKTEDTAVYYCVRHETLRSGISWFASWGQGTLVTVSS
VL: QAVVTQEPSLTVSPGGTVTLTCRSSTGAVTTSNYANWVQQKPGQAPRGLIGGTNTRAPGTPARFSGSLLGGKAALTLSGAQPEDEAEYYCVLWYNNYWVFGGGTKLTVL
In assay [2], B6 yielded a Kd of 45 nM, a koff of 0.0581 s⁻¹, a kon of 1.29e+06 M⁻¹ s⁻¹ and a t½ of 12 s.

B7: h25A8-B8_Ep (bispecific antibody, part only; not given: anti-EpCam arm, constant regions, V domains shown, not shown: another chain or arm of the molecule; a dimerising Fc or GST; small tags and cut ends)
VH: EVQLVESGGGLVKPGGSLRLSCAASGFTFSTYAMNWVRQAPGKGLEWVGRIRSKINNYATYYAESVKGRFTISRDDSKNTLYLQMNSLKTEDTAVYYCVRHETLRSGISWFASWGQGTLVTVSS
VL: QAVVTQEPSLTVSPGGTVTLTCRSSTGAVTTSNYANWVQQKPGQAPRGLIGGTNTRAPGTPARFSGSLLGGKAALTLSGAQPEDEAEYYCVLWYNNHWVFGGGTKLTVL
In assay [2], B7 yielded a Kd of 18.7 nM, an off-rate (koff) of 0.0222 s⁻¹, an on-rate constant (kon) of 1.19e+06 M⁻¹ s⁻¹ and a t½ of 31.2 s.

B8: h25A8-B12_Ep (bispecific antibody, part only; not given: anti-EpCam arm, constant regions, V domains shown, not shown: another chain or arm of the molecule; a dimerising Fc or GST; small tags and cut ends)
VH: EVQLVESGGGLVKPGGSLRLSCAASGFTFSTYAMNWVRQAPGKGLEWVGRIRSKINNYATYYAESVKGRFTISRDDSKNTLYLQMNSLKTEDTAVYYCVRHETLRSGISWFASWGQGTLVTVSS
VL: QAVVTQEPSLTVSPGGTVTLTCRASTGAVTTSNYANWVQQKPGQAPRGLIGGTNTRAPGTPARFSGSLLGGKAALTLSGAQPEDEAEYYCVLWYNNHWVFGGGTKLTVL
In assay [2], B8 displayed a Kd of 21 nM, a koff of 0.0241 s⁻¹, a kon of 1.15e+06 M⁻¹ s⁻¹ and a t½ of 28.8 s.

B9: h25A8-B13_Ep (bispecific antibody, part only; not given: anti-EpCam arm, constant regions, V domains shown, not shown: another chain or arm of the molecule; a dimerising Fc or GST; small tags and cut ends)
VH: EVQLVESGGGLVKPGGSLRLSCAASGFTFSTYAMNWVRQAPGKGLEWVGRIRSKINNYATYYAESVKGRFTISRDDSKNTLYLQMNSLKTEDTAVYYCVRHETLRSGISWFASWGQGTLVTVSS
VL: QAVVTQEPSLTVSPGGTVTLTCRTSTGAVTTSNYANWVQQKPGQAPRGLIGGTNTRAPGTPARFSGSLLGGKAALTLSGAQPEDEAEYYCVLWYNNHWVFGGGTKLTVL
With B9, in assay [2], the Kd was 18.3 nM, the off-rate (koff) came out at 0.0219 s⁻¹, the kon was found to be 1.2e+06 M⁻¹ s⁻¹ and the t½ amounted to 31.8 s.

B10: h25A8-C8_Ep (bispecific antibody, part only; not given: anti-EpCam arm, constant regions, V domains shown, not shown: another chain or arm of the molecule; a dimerising Fc or GST; small tags and cut ends)
VH: EVQLVESGGGLVKPGGSLRLSCAASGFTFNTYAMNWVRQAPGKGLEWVGRIRSKINNYATYYAESVKGRFTISRDDSKNTLYLQMNSLKTEDTAVYYCVRHETLRSGISWFASWGQGTLVTVSS
VL: QAVVTQEPSLTVSPGGTVTLTCRSSTGAVTTSNYANWVQQKPGQAPRGLIGGTNTRAPGTPARFSGSLLGGKAALTLSGAQPEDEAEYYCVLWYNNHWVFGGGTKLTVL
Take B10: in assay [2], the Kd was 25.1 nM, the koff turned out to be 0.0301 s⁻¹, the kon was 1.2e+06 M⁻¹ s⁻¹ and the t½ worked out at 22.8 s.

What is called Kd is the constant that tells how readily two partners part at equilibrium. Read a low Kd as a tighter complex. A word on the koff: it is the rate constant with which the complex falls apart. Usually kon stands for the rate constant with which the complex forms. A low value points to slow association. Usually t½ stands for the time needed for the level to fall by half in the phase considered.
